Assay [1] concerns the target T1, Flag-USP21 C221A (catalytically inactive mutant) (human, UniProt Q9UK80 1-565, C221A).
T1 construct: also called C221A mutant; source: HEK293T, transfected, in lysate (co-IP); for the GST pull-down 'lysed from HEK293T cells' (methods), 'purified recombinant protein' (results)
T1 sequence (looked up): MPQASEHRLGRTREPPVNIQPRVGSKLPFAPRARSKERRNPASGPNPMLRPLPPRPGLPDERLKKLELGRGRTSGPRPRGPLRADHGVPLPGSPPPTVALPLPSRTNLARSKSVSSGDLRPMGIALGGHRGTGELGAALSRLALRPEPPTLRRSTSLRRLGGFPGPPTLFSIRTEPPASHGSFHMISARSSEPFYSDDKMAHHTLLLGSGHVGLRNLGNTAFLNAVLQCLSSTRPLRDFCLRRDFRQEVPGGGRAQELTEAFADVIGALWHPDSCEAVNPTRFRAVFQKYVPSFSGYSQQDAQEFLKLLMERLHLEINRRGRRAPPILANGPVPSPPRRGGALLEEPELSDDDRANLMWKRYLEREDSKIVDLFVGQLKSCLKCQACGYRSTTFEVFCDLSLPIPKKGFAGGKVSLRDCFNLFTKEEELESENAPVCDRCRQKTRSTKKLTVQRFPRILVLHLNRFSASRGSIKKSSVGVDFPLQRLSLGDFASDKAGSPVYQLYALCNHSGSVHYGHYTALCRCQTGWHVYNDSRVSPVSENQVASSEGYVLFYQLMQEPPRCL
Briefly: pull-down; bacterially expressed GST or GST-FOXD1 immobilised (GST Protein Interaction Pull-Down Kit, Thermo Scientific), incubated with Flag-USP21 WT or C221A from HEK293T cells; analysed by Coomassie Brilliant Blue. The settings on record: both partners purified.

Assay [2] concerns the target T2, Flag-USP21 WT (ubiquitin-specific peptidase 21) (human, UniProt Q9UK80 1-565).
T2 construct: ubiquitin-specific peptidase 21 (USP21), wild type; overexpression plasmid bought from GeneChem; source: HEK293T, transfected, in lysate (co-IP); for the GST pull-down 'lysed from HEK293T cells' (methods), 'purified recombinant protein' (results)
T2 sequence (looked up): T1 sequence (looked up) with A221C
Described as above. The settings on record: both partners purified.

This is an account of results in paper PMC9381540, “USP21 promotes self-renewal and tumorigenicity of mesenchymal glioblastoma stem cells by deubiquitinating and stabilizing FOXD1” (Cell Death & Disease, 2022).

Changes are numbered by the printed parent chain.

B1: GST-FOXD1 (natural protein, UniProt Q16676 1-465, looked up)
chain: MTLSTEMSDASGLAEETDIDVVGEGEDEEDEEEEDDDEGGGGGPRLAVPAQRRRRRRSYAGEDELEDLEEEEDDDDILLAPPAGGSPAPPGPAPAAGAGAGGGGGGGGAGGGGSAGSGAKNPLVKPPYSYIALITMAILQSPKKRLTLSEICEFISGRFPYYREKFPAWQNSIRHNLSLNDCFVKIPREPGNPGKGNYWTLDPESADMFDNGSFLRRRKRFKRQPLLPPNAAAAESLLLRGAGAAGGAGDPAAAAALFPPAPPPPPHAYGYGPYGCGYGLQLPPYAPPSALFAAAAAAAAAAAFHPHSPPPPPPPHGAAAELARTAFGYRPHPLGAALPGPLPASAAKAGGPGASALARSPFSIESIIGGSLGPAAAAAAAAQAAAAAQASPSPSPVAAPPAPGSSGGGCAAQAAVGPAAALTRSLVAAAAAAASSVSSSAALGTLHQGTALSSVENFTARISNC
notes: Forkhead box D1 (FOXD1) fused to GST; also called immobilized GST-FOXD1; purified GST-FOXD1; source: bacterially expressed; 'purified' (results)
Take B1: the binding result in assay [1] and in assay [2] was “binds” in each case.
